Earlier results as cited in US20200181212A1 (priority 2014, published 2020).

Test system: trypsin
Conditions: cited from earlier work

In the case of asparaginase [native asparaginase], the residual activity is given as 5%.
